The results in this text go back to the nanobody polyreactivity screen of Harvey et al. (2022).

The nature of the data set: yeast display, Sf9 membrane polyspecificity reagent, FACS + sequencing; frameworks hold sequencing errors. An outline of the steps:
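Galactose induction of a Saccharomyces cerevisiae BJ5465 synthetic nanobody display library ran 36–48 hours. The cells were then stained for 1 hour at 4 °C with 10% biotinylated, detergent-solubilized Sf9 membrane reagent, pulled down on streptavidin microbeads and FACS-sorted into low and high (top ~1%) gates on expression and reagent-binding fluorescence. Labels for polyreactivity follow the gate of origin.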
Turning to “QVQLVESGGGLVQAGGSLRLSCAASGLIFRAYGMGWYIQAPGKERELLAAITWNGGSTNYADSVKGRFTISRDNAKNTVYLQMNSLKPEDTAVYYCAARLAGRGSSSSRVVRTGGYWGQGTQVTVSS”, the “polyreactivity (PSR sort gate)” value is recorded as “high polyreactivity”.

For the sequence “QVQLVESGGGILQAGGSLRLSCAASGSTFSGYAMGWYRQATGKERELVAAISSSGGSTYYADSVKGRFTISRDNAKNTVYLKMNSQKPEDTAVYYCAKRRYGKHYTGLTSYYYWGHGTQVTVSS”, the “polyreactivity (PSR sort gate)” value was “high polyreactivity”.

For the sequence “QVQLVESGGGLVQAGGSLRLTCSASGYTFPRYAMGWYRQAPGKERELVAVITRRGGSTYYADSVKGRFTISRDNAKNTVYLQMNSLKPEDTSVYYCAASDPSNKSSRPGYSYDSDSWGQGTQVTVSS”, the “polyreactivity (PSR sort gate)” value is “high polyreactivity”.

Turning to “QVLLVESGGGLVQAGGSLRLSCAASGSTFSQYAMGWNRQAPGKERELVAAIDSGSNTKYADSVKGRFTISRDHAKNTVYLQMNSLKPEDTAVYYCAADDSYRSIGGDYWGQGTQVTVSS”, the “polyreactivity (PSR sort gate)” value is reported as “low polyreactivity”.

Take “QVQLVESGGVLVQAGGSLRLSCAASGRTFGHYAMGWYRQAPGKERELVAAITRDDGTNYADSVKGRFTISRDNAKNTVYLQMNSLKPEDTAVYYCDRDVLEKYRQSWGYVPLQGYDYWGQGTQVTVSS”: the “polyreactivity (PSR sort gate)” value is “low polyreactivity”.

In the case of “QVQLVESVVGLVQARGSLRLSSAATGRTFSRYAMGWYRQAPGKESELVATISWSGTSKYYADSVKGRFTISRDNAKNTVYLQMNSLKPEETAVYYCDAYYLTRFSILYYYWGLGTQVTVSS”, the “polyreactivity (PSR sort gate)” value is listed as “high polyreactivity”.

On to “QVQLVESGGGLVQAGGSLRLSCAASGSTSPAYAMGWYRQAPGKERELVAVITGSGASTYYADSVKGRFTISRDNAKNTVYLQMNSMKPEDTAVYYCAADVGFGVVFYDYWGQGTQVTVSS”, for which the “polyreactivity (PSR sort gate)” value is “low polyreactivity”.

Consider “QVLLVESGGGLVQEGGSLRLSCAASGIIFQFYAMGWYRQAPGKERELVAAISRSGGITHYADSVKGRFTISRDNAKNTVYLQMNSLKPEDTAVYYCAAVRQAYPRLDYWGQGTQVTVSS”, for which the “polyreactivity (PSR sort gate)” value is given as “high polyreactivity”.

On to “QVQLVESGGGLVQAGGSLRLSCAASGRNFYYYAMGWSRQAPGKERELVAAISWSGGSTRYADSVKGRFTISRDNPKNTVYLQMNSLKPEDTAVYYCAAEPDYWVGWIRYDYWGQGTQVTVSS”, for which the “polyreactivity (PSR sort gate)” value is on record as “low polyreactivity”.

For the sequence “QVQLVESGGGLVQAGGSLRLSCAASGSIFNSNAMGWYRPAPGKEREFVATITQTGSSTYYADSVKGRFTISRDNAKNTVYLQMNSLKPEETAVYYCAVDWILYEYEDDFWYRYDYWGQGTQVTVSS”, the “polyreactivity (PSR sort gate)” value is reported as “low polyreactivity”.

For “QVQLVESGGGLVQAGGSLRLSCAASGSTFVRNAMGWYRQAPGKERELVAAISRSGGRTYYADSVKGRFTISRDNAKNTVYLQMNSLKPEDTAVYYCAADVYDAGVRYDYWGQGTQVTVSS”, the “polyreactivity (PSR sort gate)” value is “high polyreactivity”.

Consider “QVHLVESRGGLVQAGGSLRLSCAASGYTFGHYALGWYRHAPGKERELVAVITSGGSTNYADSEKGRFTISRDNAKNNVYLQMKSLKPEETAVYYCAADLYFYYVWLRDYWGQGTQVTVSS”, for which the “polyreactivity (PSR sort gate)” value is given as “low polyreactivity”.

Regarding “QVQLVESGGGLVQAGGSLRLSCAASGSTFPYVMGWYRQAPGKERELVAAISWSGTSTYYADSVKGRFTISRDNAKNTVYLQMNSLKPEDTAVYYCNVVYRVVSPSGGGYWGQGTQVTVSS”, the “polyreactivity (PSR sort gate)” value is listed as “high polyreactivity”.

On to “QVQIVESGGGLVQAGGSLRLSCAASGSIIYRNAMGWYRQAPGKERELVAAIRTSSGSTYYAVSVKGRFTISRDNAKNTVYLQMNSLKPVDTAVYYCGAPRLYGYYSCGQGTQVTVSS”, for which the “polyreactivity (PSR sort gate)” value was “low polyreactivity”.

Consider “QVQLVESGGGLVQAGGSLRLSCAASGSIFDVYAMGWYRQAPGKERELVAAIRTRGGSTYYADSVKGRFTISRDNAKNTVYLQMNSLKPEDTAVYYCAAGGETVIPWFDDYYWGQGTQVTVSS”, for which the “polyreactivity (PSR sort gate)” value is “low polyreactivity”.

Take “QVQLVESGGGLVQAGGSLRLSCAASGITFVKNAMGWYRQAPGKERELVARIRIGGSTSYADSVKGRFTFSRDNAKNTVYLQMNSLKPEDTAVYYCARYAGRLSYRYEYWGQGTQVTVSS”: the “polyreactivity (PSR sort gate)” value is recorded as “high polyreactivity”.

On to “QVQLVESGGGLVQAGGSLRLSCAASGLIFKSYAMGWYRQAPGKERELVAAITWSGGRTYYADSVKGRFTISRDNAKNTVYLQMNSLKPEDTAVYYCAGREYLPPYYYWGQGTQVTVSS”, for which the “polyreactivity (PSR sort gate)” value was “high polyreactivity”.

For the sequence “QVQLVESGGGLVQAGGSLRLSCAASGSIFLINAMGWYRQAPGTERELVAAISRRGGSTYYADSVKGRFTISRDNAKNTVYLQMNSLKPEDTAVYYCAATGHGRVYFGGGHWGQGTQVTVSS”, the “polyreactivity (PSR sort gate)” value is on record as “high polyreactivity”.

Take “QVQLVESGGGLVQAGGSLRLSCAASGGIVGYYAMGWYRQAPGKERELVAAISWSGGSTYYADSVKGRFTISRDNAKNTVYLQMNSLKPEDTAVYYCAASDSYGYDYWGQGTQVTVSS”: the “polyreactivity (PSR sort gate)” value is “high polyreactivity”.

As to “QVQLVETGGGLVQAGGSLRLSCAASGYILINAMGLYRQAPGKERELVASISWSSGSTYYADSVKGRFTISRDNAKNTVFLQMNSLKPEDTAVYYCAATAWDRWSYRYEYWGQGTQVTVSS”, the “polyreactivity (PSR sort gate)” value is “low polyreactivity”.

On to “QVQLVESGGGLVQAGGSLRLSCAASGRILDINTMRGYRHPPGKERELVAAITWSGVSTYYADSVKGRFTISRDNAKNTVYLQMNSLKPEDTAVYYCAARPYYTWRYLPTNSGDYWGQGTQETVSS”, for which the “polyreactivity (PSR sort gate)” value is “low polyreactivity”.

For “QVQLVESGGGLVQAGGSLRLSCAPSGSTFRRNAMGWSRQAPGKERELVAANSGSGGRTYYADSVKGRITISRDNAKNTVYLQMNSMKPEDTAVYYCAARSTVYEFFYYRGWWEYYYWGQGTQVTVSS”, the “polyreactivity (PSR sort gate)” value is recorded as “low polyreactivity”.

With “QVQLVESGGGLVHAGGSLRLSCSASGSTFGPYAMGWYRQAPGKERELVAAISSRGARTYYADSVKGRFTISRDNAKNTVYLQMNSLKPEDTAVYYCANTYHGTAYDYWGQGTQVTVSS”, the “polyreactivity (PSR sort gate)” value was “high polyreactivity”.

As to “QVQLVESGGGLVQAGGSLRLICAASGLIFPRYDMGWYRQAPGKERELVAAITSGGGTYYADSVKGRFTISRDNAKNTVYLQMNSLKPEDTAVYYCARDHYRHSRYFYRYDYWGQGTQVTVSS”, the “polyreactivity (PSR sort gate)” value was “low polyreactivity”.

With “QVQLVESGGGLVQAGGSLRLSCAASGFILDTYGMGWYRQAPGKERELVAAISQSDVSTYYADSVKGRFTISRDNAKNTVYLQMNSLKPEDTAVYYCAADRGGLRWFWQVLYDYWGQGTQVTVSS”, the “polyreactivity (PSR sort gate)” value is listed as “low polyreactivity”.

As to “QVQLVESGGGLVQAGGSLRLSCAASGITFYRYMGWYRQAPGKERELVASITGRGGSTYYADSVKGRFTISRDNAKNTVYLQMNSLKPEDTAVYYCAARSYARPGGSRFDYWGQGTQVTVSS”, the “polyreactivity (PSR sort gate)” value was “high polyreactivity”.

In the case of “QVQLVESGGGLVQAGGSLRLSCAASGNTFYRYAMGWYRQAPGKERELVAAISWSGSSTYYADSVKGRFTISRDNAKNTVYLQMNSLKPEDTAVYYCAVYYTRIGPRYDYWGQGTQVTVSS”, the “polyreactivity (PSR sort gate)” value is given as “high polyreactivity”.

Consider “QVQLVESGGGLVQAGGSLRLSCAASGITFKPYGMGWYRPAPGKERELVADITSGGITYYADSVKGRFTISRDNAKNTVYLQMNSLKPEDTAVYYCATGDLFVYYWGYVVRLYDYWGQGTQVTVSS”, for which the “polyreactivity (PSR sort gate)” value was “low polyreactivity”.

As to “QVQLVESGGGLVQAGGSLRLSCAASGRTFRYYAMGWYRQAPGKERELVAAITSNGGSTYYADSVKGRFTISRDNAKNTVYLQMNSLKPEDTAVYYCNALASRGKYGFDYWGQGTQVTVSS”, the “polyreactivity (PSR sort gate)” value was “high polyreactivity”.

In the case of “QVQLVESRGRLVQAVGSLRLSCAASGFTFDSYPMGWYRHAPRKEMEFVAGITDLGDYTYYADSVKGRFTISRDTAKNTVFLQMKSLKPEDTEVYYCNDTTGYKHAWRCENGYWGQGTQVTVSS”, the “polyreactivity (PSR sort gate)” value is given as “low polyreactivity”.

Turning to “QVQLVESGGCLVQAGGSLRLSCAASGSISYSYSMGWYRQAPGKERELVATISWGGGRTYYADSVKGRFTISRDNAKNTVYLQMNSLKPEDTAVYYFATAYRFRYGFAKRYDYWGQGTQVTVSS”, the “polyreactivity (PSR sort gate)” value was “low polyreactivity”.

As to “QVQLVESGGGLVQAGGSLRLSCAASGSTFLSYAMGWYRQAPGKERELVAAITSGGRTYYADSVKGRFTISRDNAKNTVYLQMNSLKPEDTAVYYCAAVTGRFGYWGQGTQVTVSS”, the “polyreactivity (PSR sort gate)” value is listed as “high polyreactivity”.

For the sequence “QVQLVESGGGIVQAGGSLRLSCAASGRIFSVNAMGWYRQAPGKERELVAAITGSGTITYYADSVKGRFTISRDNAKNSVYLQMNSLKPEDTAVYYCAARPVLRYYAGYYYWGQGTQVTVSS”, the “polyreactivity (PSR sort gate)” value was “high polyreactivity”.

As for “QVQLVESGGGLVQAGGSLRLSCAASGRTFQYYAMGWYRQAPGKERELVAAITSGGSTYYADSVKGRFTISRDNAKNTVYLQMNSLKPEDTAVYYCAASFYYSGHDDYWGQGTQVTVSS”, the “polyreactivity (PSR sort gate)” value is reported as “low polyreactivity”.

As for “QVQLVESGGGLVQAGGSLRLSCAASGYTFGANVMGWYRQAPGKERELVAAINTRGSRTYYADSVNGRFTISRDNAKNTVYLQMNSLKPEDTAVYYCAAALRKEYDYWGQGTQVTVSS”, the “polyreactivity (PSR sort gate)” value is given as “high polyreactivity”.

On to “QVQLVESGGGLVQAGGSLRLSCAASGFTFSQYAMGWYRQAPGKERELDAAISWNGGSTYYADSVKGRFTISRDNAKNTVYLQMNSLKPEDTAVYYCAAYGYYTKVTKYDYWGQGTQVTVSS”, for which the “polyreactivity (PSR sort gate)” value is “high polyreactivity”.

As for “QVQLVESGGGLVQAGGSLRLSCAASGFIFLSNGMGWYRPAPGKERELVAAITSGGNTNYADSVTGRFTISRDNAKTTVYLQMNSLKPEDTAVYYCAAYWIFITYFGYYSEYAYWGQGTQVTVSS”, the “polyreactivity (PSR sort gate)” value is listed as “low polyreactivity”.

With “QVQLVESGGGLVQAGGSLRLSCAASGRIFWVNVMGWSRQAPGKERELVAAITRGASTYADSVKGRFTISRDNAKNTVYLQMNSLKPEDTAVYYCAADTKRRSIRYDYWGQGTQVTVSS”, the “polyreactivity (PSR sort gate)” value was “high polyreactivity”.

Turning to “QVQLVESGGGILQAGGSLRLSCAASGFILSPNTMAWSRQAPGKERELVAAISSDVSTYADSVKGRFTISRDNAKNTVYLQINSLKPEDTAVYYCNADDFGYASYEYWGQATQVTVSS”, the “polyreactivity (PSR sort gate)” value is given as “low polyreactivity”.

For “QVQLLESGGGLVQAGGSLRLSFAASGLTLGAYAMVWYRQAPGKERELVAAITNGGSTDYADSVKGRFTISRDNAKITVYLQMNSLKPEDTAVYYCAKDISRPDRGMDYWGQGTQVTVSS”, the “polyreactivity (PSR sort gate)” value is “low polyreactivity”.
